Measurements: publication PMC12103069, “Structure predictions of MuRF1‐UBE2 complexes identify amino acid residues governing interaction selectivity for each MuRF1‐E2 pair” (The Febs Journal, 2025)

T1: GST-MuRF3RM (MuRF3 amino acids 1-115, RING and MFC domains) (UniProt Q9ERP3 1-115)
T1 construct: Cloned in pGEX6P3
T1 sequence (looked up): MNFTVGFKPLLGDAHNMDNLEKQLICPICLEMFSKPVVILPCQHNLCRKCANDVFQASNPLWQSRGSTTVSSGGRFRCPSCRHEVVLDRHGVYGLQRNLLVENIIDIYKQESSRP

B1: UBE2J1 cytosolic part, wild type (domain or fragment, Mus musculus, UniProt Q9JJZ4 1-282, looked up)
chain: METRYNLKSPAVKRLMKEAAELKDPTDHYHAQPLEDNLFEWHFTVRGPPDSDFDGGVYHGRIVLPPEYPMKPPSIILLTANGRFEVGKKICLSISGHHPETWQPSWSIRTALLAIIGFMPTKGEGAIGSLDYTPEERRALAKKSQDFCCEGCGSAMKDVLLPLKSGSGSSQADQEAKELARQISFKAEVNSSGKTIAESDLNQCFSLNDSQDDLPTTFQGATASTSYGAQNPSGAPLPQPTQPAPKNTSMSPRQRRAQQQSQRRPSTSPDVLQGQPPRAHHT
notes: UBE2J1, Mus musculus, cytosolic part (amplified from C2C12 cells); Cloned in pET28a; source: E. coli Rosetta (DE3), purified (Ni-NTA)
B2: UBE2J2 cytosolic part, wild type (domain or fragment, Mus musculus, UniProt Q6P073 1-226, looked up)
chain: MSNNSNKRAPTTATQRLKQDYLRIKKDPVPYICAEPLPSNILEWHYVVRGPEMTPYEGGYYHGKLIFPREFPFKPPSIYMITPNGRFKCNTRLCLSITDFHPDTWNPAWSVSTILTGLLSFMVEKGPTLGSIETSDFTKKQLAAQSLVFNLKDKVFCELFPEVVEEIKQKQKAQDELSNRPQNLPLPDVVPDGELHRGQHGIQLLNGHAPAAGPNLAGLPQANRHH
notes: UBE2J2, Mus musculus, cytosolic part (amplified from C2C12 cells); Cloned in pET28a; also called EJ2c; source: E. coli Rosetta (DE3), purified (Ni-NTA)
B3: GST-MuRF1RM (MuRF1 amino acids 1-115, RING and MFC domains) (domain or fragment, Rattus norvegicus)
chain: MDYKSGLIPDGNAMENLEKQLICPICLEMFTKPVVILPCQHNLCRKCANDIFQAANPYWTNRGGSVSMSGGRFRCPSCRHEVIMDRHGVYGLQRNLLVENIIDIYKQECSSRPLQ
modifications: red fluorescent dye NT-647, covalently, by amine coupling (in the fluorescence assay only)
notes: MuRF1 / TRIM63, Rattus norvegicus, first 115 amino acids (RING and MFC domains); Cloned in pGEX6P3; Immobilised unlabelled by amine coupling in SPR; labelled with NT-647 in the fluorescence assay; also called MuRF1 (in the SPR section); not shown: GST, N-terminal, kept
B4: GST-MuRF3 (full length) (enzyme, UniProt Q9ERP3 1-366, looked up)
chain: MNFTVGFKPLLGDAHNMDNLEKQLICPICLEMFSKPVVILPCQHNLCRKCANDVFQASNPLWQSRGSTTVSSGGRFRCPSCRHEVVLDRHGVYGLQRNLLVENIIDIYKQESSRPLHAKAEQHLMCEEHEDEKINIYCLSCEVPTCSLCKVFGAHKDCEVAPLPTIYKRQKSELSDGIAMLVAGNDRVQAVITQMEEVCQTIEDNSRRQKQLLNQRFETLCAVLEERKGELLQALAREQEEKLQRVRGLIRQYGDHLEGSSKLVESAIQSMEEPQMALYLQQAKELINKVGAMSKVELAGRPEPGYESMEQFSVSVEHVAEMLRTIDFQPGAAGDEEDDDMALDGEEGNAGLEEERLDVPEGSGLH
modifications: fluorochrome, covalently (NT-647 by amine coupling in the methods; NT115 in the results)
notes: Cloned in pGEX6P3
B5: UBE2E1 (enzyme, Mus musculus)
chain: MSDDDSRASTSSSSSSSSNQQTEKEGSTPKKKESKVSMSKNSKLLSTSAKRIQKELADITLDPPPNCSAGPKGDNIYEWRSTILGPPGSVYEGGVFFLDITFTPEYPFKPPKVTFRTRIYHCNINSQGVICLDILKDNWSPALTISKVLLSICSLLTDCNPADPLVGSIATQYMTNRAEHDRMARQWTKRYAT
notes: UBE2E1, Mus musculus, full length (amplified from C2C12 cells); Cloned in pET28a; source: E. coli Rosetta (DE3), purified (Ni-NTA)

Assays:
Assay in all cases: other fluorescence titration; change in the initial fluorescence of dye-labelled GST-MuRF (10 nM, constant) with a 16-sample serial dilution of the E2; MonolithX (NanoTemper), premium capillaries, 100% MST power, 25 °C; 50 mM HEPES pH 7.4, 150 mM NaCl, 0.005% Tween20, 0.1% dextran
Conditions in all cases: both partners purified
GST-MuRF3 (full length) = molecular target: B4
UBE2L3 wild type = molecular target: T2, UBE2L3 wild type (Mus musculus)
T2 construct: UBE2L3, Mus musculus, full length (amplified from C2C12 cells); Cloned in pET28a; source: E. coli Rosetta (DE3), purified (Ni-NTA)

[1] = molecular target: B3
[2] = molecular target: T1, GST-MuRF3RM (MuRF3 amino acids 1-115, …)

Binder: B1
Kd (GST-MuRF3 (full length)): 0.4 µM

Binder: B2
Kd (GST-MuRF3 (full length)): 24.8 µM

Binder: B3
binding result (UBE2L3 wild type): binds

Binder: B4
Kd (UBE2L3 wild type): 400 nM

Binder: B5
Kd [1]: 400 nM
Kd [2]: 500 nM
